In patent US20210261648A1 (published 2021):
Numbering of substitutions follows the chain as printed. Numbers in names are those of the source.

B1: GpH7-G1d/GpL16-k0 (antibody, human IgG1, kappa)
heavy: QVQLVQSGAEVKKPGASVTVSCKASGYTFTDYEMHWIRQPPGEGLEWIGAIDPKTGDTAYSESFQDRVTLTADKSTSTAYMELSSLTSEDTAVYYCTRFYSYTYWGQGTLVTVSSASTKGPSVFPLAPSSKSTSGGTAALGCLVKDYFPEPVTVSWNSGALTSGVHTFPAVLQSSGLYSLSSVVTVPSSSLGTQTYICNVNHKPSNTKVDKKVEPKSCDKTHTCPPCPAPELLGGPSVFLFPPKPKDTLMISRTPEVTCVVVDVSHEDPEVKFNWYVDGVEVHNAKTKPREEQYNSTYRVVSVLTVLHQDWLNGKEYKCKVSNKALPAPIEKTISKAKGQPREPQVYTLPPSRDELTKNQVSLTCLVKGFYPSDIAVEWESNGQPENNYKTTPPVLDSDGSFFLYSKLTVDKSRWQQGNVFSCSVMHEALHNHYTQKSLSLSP
light: DIVMTQSPLSLPVTPGEPASISCQASESLVHSNRNTYLHWYLQKPGQSPQLLIYKVSNRFSGVPDRFSGSGSGTDFTLKISRVEAEDVGVYYCSQNTHVPPTFGQGTKVEIERTVAAPSVFIFPPSDEQLKSGTASVVCLLNNFYPREAKVQWKVDNALQSGNSQESVTEQDSKDSTYSLSSTLTLSKADYEKHKVYACEVTHQGLSSPVTKSFNRGEC
notes: Anti-glypican 3 IgG1 without C-terminal Gly and Lys
B2: GpH7-AP001/GpH7-BF648/GpL16-k0 (antibody, human IgG1, kappa, name in EU numbering)
heavy 1: QVQLVQSGAEVKKPGASVTVSCKASGYTFTDYEMHWIRQPPGEGLEWIGAIDPKTGDTAYSESFQDRVTLTADKSTSTAYMELSSLTSEDTAVYYCTRFYSYTYWGQGTLVTVSSASTKGPSVFPLAPSSKSTSGGTAALGCLVKDYFPEPVTVSWNSGALTSGVHTFPAVLQSSGLYSLSSVVTVPSSSLGTQTYICNVNHKPSNTKVDKKVEPKSCDKTHTCPPCPAPELLGGDSVFLFPPKPKDTLMISRTPEVTCVVVDVSHEDPEVKFNWYVDGVEVHNAKTKPREEQYNSTYRVVSVLTVLHQDWLNGKEYKCKVSNKALPAPIEKTISKAKGQPREPQVYTLPPSRKELTKNQVSLTCLVKGFYPSDIAVEWESNGQPENNYKTTPPVLDSDGSFFLYSKLTVDKSRWQQGNVFSCSVMHEALHNRYTQKSLSLSP
heavy 2: not shown
light: B1 light
notes: Heterodimerized anti-glypican 3 IgG1; P238D in both chains
B3: GpH7-A5/GpH7-B3/GpL16-k0 (antibody, human IgG1, kappa)
heavy 1: not shown
heavy 2: not shown
light: B1 light
notes: Heterodimerized anti-glypican 3 IgG1 (A5: D356K/H435R; B3: K439E); also called A5/B3
B4: GpH7-AP001/GpH7-BP057/GpL16-k0 (antibody, human IgG1, kappa)
heavy 1: B2 heavy 1
heavy 2: not shown
light: B1 light
notes: Heterodimerized anti-glypican 3 IgG1; copies: 1 + 1 + 2
B5: GpH7-AP001/GpH7-BP032/GpL16-k0 (antibody, human IgG1, kappa)
heavy 1: B2 heavy 1
heavy 2: not shown
light: B1 light
notes: as for B4
B6: GpH7-AP001/GpH7-BP044/GpL16-k0 (antibody, human IgG1, kappa)
heavy 1: B2 heavy 1
heavy 2: not shown
light: B1 light
notes: as for B4
B7: GpH7-AP001/GpH7-BP063/GpL16-k0 (antibody, human IgG1, kappa, name in EU numbering)
heavy 1: B2 heavy 1
heavy 2: not shown
light: B1 light
notes: Heterodimerized anti-glypican 3 IgG1
B8: GpH7-AP001/GpH7-BP061/GpL16-k0 (antibody, human IgG1, kappa, name in EU numbering)
heavy 1: B2 heavy 1
heavy 2: not shown
light: B1 light
notes: as for B7
B9: GpH7-A5/GpH7-BF648/GpL16-k0 (antibody, human IgG1, kappa)
heavy 1: not shown
heavy 2: not shown
light: B1 light
notes: Heterodimerized anti-glypican 3 IgG1; P238D in the GpH7-B3 chain only
B10: IL6R-F652/IL6R-L (antibody, human IgG1, kappa)
heavy: QVQLQESGPGLVKPSETLSLTCAVSGHSISHDHAWSWVRQPPGEGLEWIGFISYSGITNYNPSLQGRVTISRDNSKNTLYLQMNSLRAEDTAVYYCARSLARTTAMDYWGEGTLVTVSSASTKGPSVFPLAPSSKSTSGGTAALGCLVKDYFPEPVTVSWNSGALTSGVHTFPAVLQSSGLYSLSSVVTVPSSSLGTQTYICNVNHKPSNTKVDKKVEPKSCDKTHTCPPCPAPELLGGDSVFLFPPKPKDTLYISRTPEVTCVVVDVSHEDPEVKFNWYVDGVEVHNAKTKPREEQYNSTYRVVSVLTVLHQDWLNGKEYKCKVSNKALPAPIEKTISKAKGQPREPQVYTLPPSRDELTKNQVSLTCLVKGFYPSDIAVEWESNGQPENNYKTTPPVLDSDGSFFLYSKLTVDKSRWQQGNVFSCSVMHEALHYHYTQKSLSLSP
light: not shown
notes: IL6R-F11 (IL6R-G1d with M252Y/N434Y) with P238D
B11: IL6R-PD043/IL6R-L (antibody, human IgG1, kappa)
heavy: B10 heavy with L236Y
light: not shown
notes: PD variant; alterations introduced into IL6R-F11
B12: IL6R-PD079/IL6R-L (antibody, human IgG1, kappa)
heavy: B10 heavy with G239A
light: not shown
notes: as for B11
B13: IL6R-PD094/IL6R-L (antibody, human IgG1, kappa)
heavy: B10 heavy with G239W
light: not shown
notes: as for B11
B14: IL6R-PD081/IL6R-L (antibody, human IgG1, kappa)
heavy: B10 heavy with G239E
light: not shown
notes: as for B11
B15: IL6R-PD086/IL6R-L (antibody, human IgG1, kappa)
heavy: B10 heavy with G239L
light: not shown
notes: as for B11
B16: IL6R-PD095/IL6R-L (antibody, human IgG1, kappa)
heavy: B10 heavy with G239Y
light: not shown
notes: as for B11
B17: IL6R-PD080/IL6R-L (antibody, human IgG1, kappa)
heavy: B10 heavy with G239D
light: not shown
notes: as for B11
B18: IL6R-PD097/IL6R-L (antibody, human IgG1, kappa)
heavy: B10 heavy with S241D
light: not shown
notes: as for B11
B19: IL6R-PD082/IL6R-L (antibody, human IgG1, kappa)
heavy: B10 heavy with G239F
light: not shown
notes: as for B11
B20: IL6R-PD087/IL6R-L (antibody, human IgG1, kappa)
heavy: B10 heavy with G239M
light: not shown
notes: as for B11

The binders below were run against T1, FcγRIIb extracellular domain with C-terminal His tag (human, UniProt P31994 43-217) (assay: SPR binding amounts, FcgRIIb divided by FcgRIIaR).
T1 construct: extracellular domain; For crystallography it was expressed with kifunensine and trimmed with Endo F1; also called FcgRIIb; FcγRIIb extracellular region; not shown: His tag attached to the C terminus
T1 sequence (looked up): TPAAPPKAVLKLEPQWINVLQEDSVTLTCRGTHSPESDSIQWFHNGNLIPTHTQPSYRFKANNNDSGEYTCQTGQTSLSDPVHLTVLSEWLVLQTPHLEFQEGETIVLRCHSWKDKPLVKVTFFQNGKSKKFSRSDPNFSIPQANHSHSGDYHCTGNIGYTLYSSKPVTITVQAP

| Binder | amount binding to FcgRIIb/amount binding to FcgRIIaR |
| --- | --- |
| B1 | 0.5 |
| B2 | 4 |
| B3 | 0.5 |
| B4 | 0.9 |
| B5 | 1 |
| B6 | 0.8 |
| B7 | 1.7 |
| B8 | 2.9 |
| B9 | 0.8 |

What follows are binders tested against T1, FcγRIIb extracellular domain with … (assay: SPR binding amount, relative to IL6R-F652/IL6R-L).

| Binder | relative binding activity to FcγRIIb (IL6R-F652/IL6R-L = 100) |
| --- | --- |
| B10 | 100 |
| B11 | 112 |
| B12 | 101 |
| B13 | 122 |
| B14 | 101 |
| B15 | 112 |
| B16 | 124 |
| B17 | 127 |
| B18 | 139 |
| B19 | 108 |
| B20 | 109 |

Molecular target: T2, FcγRIIa type R extracellular domain with C-terminal His tag (human, UniProt P12318 34-217)
T2 chain: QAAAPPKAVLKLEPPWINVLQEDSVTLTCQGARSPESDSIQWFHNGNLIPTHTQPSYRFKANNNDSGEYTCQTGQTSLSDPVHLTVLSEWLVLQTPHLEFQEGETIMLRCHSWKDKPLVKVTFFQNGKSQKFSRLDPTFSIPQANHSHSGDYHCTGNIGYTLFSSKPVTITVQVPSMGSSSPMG
Assay: SPR binding amount, relative to IL6R-F652/IL6R-L

| Binder | relative binding activity to FcγRIIaR (IL6R-F652/IL6R-L = 100) |
| --- | --- |
| B10 | 100 |
| B11 | 175 |
| B12 | 138 |
| B13 | 593 |
| B14 | 117 |
| B15 | 268 |
| B16 | 543 |
| B17 | 222 |
| B18 | 844 |
| B19 | 380 |
| B20 | 196 |

The binders below were run against T1, FcγRIIb extracellular domain with … (assay: SPR binding amount, relative to GpH7-AP001/GpH7-BF648/GpL16-k0).

| Binder | binding amount to FcgRIIb when that of GpH7-AP001/GpH7-BF648 is defined as 100 |
| --- | --- |
| B1 | 65 |
| B2 | 100 |
| B3 | 77 |
| B4 | 121 |
| B5 | 129 |
| B6 | 127 |
| B7 | 69 |
| B8 | 80 |
| B9 | 131 |

Molecular target: T2, FcγRIIa type R extracellular domain …
Assay: as above

| Binder | binding amount to FcgRIIaR when that of GpH7-AP001/GpH7-BF648 is defined as 100 |
| --- | --- |
| B1 | 515 |
| B2 | 100 |
| B3 | 570 |
| B4 | 561 |
| B5 | 538 |
| B6 | 609 |
| B7 | 161 |
| B9 | 677 |
